Assay results taken from patent US8026218.
Bridge positions count the residues as written; N and C are the ends. Square brackets hold non-standard residues; d marks the D form. Primed or numbered codes have the meaning given here. Ends that are not written are not given here. * marks the point of attachment. Glc = O-glucosyl on Ser side chain (Ser(OGlu)/Ser(OGlc)); NH(3,5-(CF3)2-benzyl) = FC(F)(F)c1cc(CN*)cc(C(F)(F)F)c1; OBzl(3,5-(CF3)2) = FC(F)(F)c1cc(CO*)cc(C(F)(F)F)c1; Glc″ = glucosyl on the serine side-chain oxygen; Dmt = Cc1cc(O)cc(C)c1C[C@H](N)C(=O)O; Nle = CCCC[C@H](N)C(=O)O; NHBn = c1ccc(CN*)cc1

B1: TyrDAlaGlyPheNleProLeuTrpOBn(CF3)2 (peptide)
peptide: YAGFXPLW
modifications: here or on the partner: D-Ala at 2; Nle at 5 (written X); C-terminal O-3,5-Bzl(CF3)2 ester
B2: TyrDAlaGlyPheNleProLeuTrpNHBn(CF3)2 (peptide)
peptide: YAGFXPLW
modifications: here or on the partner: D-Ala at 2; Nle at 5 (written X); C-terminal NH-3,5-Bzl(CF3)2 amide
B3: TyrDAlaGlyPheMet(O)ProLeuTrpOBn(CF3)2 (peptide)
peptide: YAGFMPLW
modifications: here or on the partner: D-Ala at 2; Met(O) at 5; C-terminal O-3,5-Bzl(CF3)2 ester

Each binder was assayed against δ opioid receptor of the mouse isolated vas deferens (mouse), P32300 (assay: cell-based or functional assay).
Sequence of δ opioid receptor of the mouse isolated vas deferens (mouse), P32300 (P32300 whole entry, stated change not applied): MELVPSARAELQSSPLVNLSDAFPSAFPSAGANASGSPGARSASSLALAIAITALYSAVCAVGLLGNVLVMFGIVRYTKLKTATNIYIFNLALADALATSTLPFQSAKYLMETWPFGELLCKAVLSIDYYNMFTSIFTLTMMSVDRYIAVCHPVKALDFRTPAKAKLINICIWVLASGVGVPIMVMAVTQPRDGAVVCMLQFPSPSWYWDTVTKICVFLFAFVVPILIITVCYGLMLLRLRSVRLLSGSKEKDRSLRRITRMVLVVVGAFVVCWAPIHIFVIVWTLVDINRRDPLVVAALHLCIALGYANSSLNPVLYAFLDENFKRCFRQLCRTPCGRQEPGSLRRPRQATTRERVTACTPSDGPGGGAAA

Binder	MVD IC50 [nM]	MVD opioid(delta) agonist IC50 [nM]	MVD (δ) IC50 [nM]	MVD (δ) opioid agonist IC50 [nM]
Y[dA]GFFPLW-{OBzl(3,5-(CF3)2)} [TyrDAlaGlyPhePheProLeuTrpOBn(CF3)2]	905	–	–	–
Y[dA]GF[Nle]S(Glc″)LW-{NH(3,5-(CF3)2-benzyl)} [TyrDAlaGlyPheNleSer(OGlu)LeuTrpNHBn(CF3)2]	18	–	–	–
[Dmt][dA]GFMPLW-NHBn [DmtDAlaGlyPheMetProLeuTrpNHBn]	6.9	–	–	–
B1	16.8	–	–	–
Y[dA]GFGPLW-{OBzl(3,5-(CF3)2)} [TyrDAlaGlyPheGlyProLeuTrpOBn(CF3)2 (TY006)]	–	172	–	–
Y[dC]GF[dC]PLW-{NH(3,5-(CF3)2-benzyl)} (disulfide 2-5) [Tyr[DCysGlyPheDCys]ProLeuTrpNHBn(CF3)2]	–	–	8.3	–
Y[dA]GFS(Glc)PLW-{NH(3,5-(CF3)2-benzyl)} [TyrDAlaGlyPheSer(OGlu)ProLeuTrpNHBn(CF3)2]	109	–	–	–
Y[dA]GFMPLW-{OBzl(3,5-(CF3)2)} [TyrDAlaGlyPheMetProLeuTrpOBn(CF3)2]	22.3	–	22	–
Y[dA]GF[Nle]PS(Glc)W-{NH(3,5-(CF3)2-benzyl)} [TyrDAlaGlyPheNleProSer(OGlu)TrpNHBn(CF3)2]	12.7	–	–	–
Y[dA]GFFPLW-{OBzl(3,5-(CF3)2)} [TyrDAlaGlyPhePheProLeuTrpOBn(CF3)2 (TY003)]	–	905	–	–
[Dmt][dA]GFMPLW-{NH(3,5-(CF3)2-benzyl)} [DmtDAlaGlyPheMetProLeuTrpNHBn(CF3)2]	1.8	–	–	–
Y[dA]GFLPLW-{OBzl(3,5-(CF3)2)} [TyrDAlaGlyPheLeuProLeuTrpOBn(CF3)2]	101	–	–	–
Y[dA]GFGPLW-{OBzl(3,5-(CF3)2)} (also: TFA salt) [TyrDAlaGlyPheGlyProLeuTrpOBn(CF3)2]	172	–	–	–
B2	13.6	–	–	–
H-Y[dA]GFFPLW-{OBzl(3,5-(CF3)2)} (also: TFA salt) [H-Tyr-D-Ala-Gly-Phe-Phe-Pro-Leu-Trp-O-3,5-Bzl(CF3)2]	–	–	–	905
Y[dA]GFLPLW-{OBzl(3,5-(CF3)2)} [TyrDAlaGlyPheLeuProLeuTrpOBn(CF3)2 (TY004)]	–	101	–	–
Y[dC]GFCPLW-{NH(3,5-(CF3)2-benzyl)} (disulfide 2-5) [Tyr[DCysGlyPheCys]ProLeuTrpNHBn(CF3)2]	–	–	73	–
[Dmt][dA]GFMPLW-{OBzl(3,5-(CF3)2)} [DmtDAlaGlyPheMetProLeuTrpOBn(CF3)2]	1.3	–	–	–
Y[dC]GF[Nle]PCW-{NH(3,5-(CF3)2-benzyl)} (disulfide 2-7) [Tyr[DCysGlyPheNleProCys]TrpNHBn(CF3)2]	–	–	85	–
Y[dC]GF[Nle]P[dC]W-{NH(3,5-(CF3)2-benzyl)} (disulfide 2-7) [Tyr[DCysGlyPheNleProDCys]TrpNHBn(CF3)2]	–	–	19	–
Y[dA]GF[dF]PLW-{OBzl(3,5-(CF3)2)} [TyrDAlaGlyPheDPheProLeuTrpOBn(CF3)2]	412	–	–	–
Y[dA]GFMPLW-{OBzl(3,5-(CF3)2)} [TyrDAlaGlyPheMetProLeuTrpOBn(CF3)2 (TY005)]	–	22.3	–	–
B3	33	–	–	–
Y[dA]GFMPLW-{NH(3,5-(CF3)2-benzyl)} [TyrDAlaGlyPheMetProLeuTrpNHBn(CF3)2]	14.5	–	–	–
